Our source for the protein stability index values is the supplement of paper PMC9732359.

± gives the uncertainty stated by the source.

This data set is described as follows: protein stability index of a GFP-peptide fusion (yeast GPS) (PSI 1-4); higher = more stable; sorted into four equal gates, so the index is relative within each strain. Put shortly: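 For each peptide, the protein stability index sums the read frequency in every gate after multiplying it by the gate number. Read frequencies came from plasmids that were PCR-amplified from each gate and Illumina-sequenced, with reads assigned to strains by barcodes. The gates were four equal bins of GFP/Cherry fluorescence ratio applied to mid-log yeast in leucine-free medium carrying a pooled library of tiled 17-residue yeast protein peptides fused downstream of GFP on a Cherry-expressing plasmid.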

Turning to GIIEPSLKALASKYNCD [RPL40A], the protein stability index runs as follows: (doa10∆) 3.44 ± 0.17; (pdr5∆) 3.27 ± 0.23; (san1∆) 3.09 ± 0.085; (ubr1∆) 3.19 ± 0.2.
The corresponding values for YTYSSTLSHLRRTNTPI [RPB2] are 2.06 ± 0.043, 2.13 ± 0.04, 2.23 ± 0.063 and 2.17 ± 0.033.
The corresponding values for FLMGIFNSVVNLSRYPK [MTR3] are 2.6 ± 0.091, 2.5 ± 0.089, 2.49 ± 0.13 and 2.32 ± 0.13.
For TNFEILNEMLNTRKNMS [DIS3], the protein stability index runs as follows: (doa10∆) 2.97 ± 0.059; (pdr5∆) 3.07 ± 0.091; (san1∆) 3.06 ± 0.054; (ubr1∆) 3.09 ± 0.041.
The matching figures for RMRVSVLEKYEVIGYIA [SSN3]: 1.4 ± 0.14, 1.56 ± 0.2, 1.09 ± 0.27 and 1.15 ± 0.049.
The matching figures for DISATQLPKQLWRNFCR [ITC1]: 2.61 ± 0.054, 2.68 ± 0.048, 2.71 ± 0.035 and 2.8 ± 0.036.
The corresponding values for SDKQRRLLAKDAMIAQR [DIS3] are 2.29 ± 0.056, 2.48 ± 0.049, 2.36 ± 0.064 and 2.46 ± 0.049.
For the sequence QKTVNLKNIMKVSDPYV [RPN4], the protein stability index by setting is: (doa10∆) 2.32 ± 0.084; (pdr5∆) 2 ± 0.11; (san1∆) 2.48 ± 0.1; (ubr1∆) 1.82 ± 0.058.
The matching figures for FSKKGNEPLSEIEIEGV [YAR002W/NUP60]: 2.72 ± 0.11, 3.17 ± 0.14, 3.04 ± 0.08 and 3.15 ± 0.1.
The corresponding values for EYKLRSLTLSFIRHVAK [ECM29] are 2.49 ± 0.068, 2.54 ± 0.062, 2.77 ± 0.049 and 2.81 ± 0.046.
Consider LPEKVNFRTMQQQQMQQ [SSN2], for which the protein stability index turned out to be 2.3 ± 0.18 (doa10∆), 2.75 ± 0.18 (pdr5∆), 2.46 ± 0.19 (san1∆) and 2.38 ± 0.14 (ubr1∆).
The corresponding values for VSNLMGRNIGHPIIQDK [RPB3] are 3.42 ± 0.079, 3.43 ± 0.072, 3.17 ± 0.053 and 3.22 ± 0.084.
The corresponding values for NVHGSLEPFLLMLEDTD [BRR2] are 2.47 ± 0.077, 2.63 ± 0.088, 2.87 ± 0.11 and 2.94 ± 0.059.
The matching figures for SRDELIRLAKTLKKNNV [RPN10]: 1.77 ± 0.086, 1.81 ± 0.091, 2.42 ± 0.17 and 2.07 ± 0.089.
For KTADVKRQYVKQFLTKD [RPL20A], the protein stability index was found to be 2.94 ± 0.087 (doa10∆), 2.92 ± 0.055 (pdr5∆), 2.2 ± 0.07 (san1∆) and 2.6 ± 0.048 (ubr1∆).
The matching figures for SLSEGCDILVATPGRLI [PRP28]: 3.47 ± 0.12, 3.23 ± 0.084, 3.25 ± 0.047 and 3.28 ± 0.05.
Take VNYLISNTMYSVRLFSF [YJL039C/NUP192]: the protein stability index is 1.43 ± 0.046 (doa10∆), 1.42 ± 0.058 (pdr5∆), 1.34 ± 0.088 (san1∆) and 1.6 ± 0.056 (ubr1∆).
The matching figures for SQSLGVSNKFEKIFHYG [PUP3]: 3.47 ± 0.13, 3.5 ± 0.17, 2.95 ± 0.13 and 3.61 ± 0.14.
The corresponding values for DILSQILYGLVDKGAIM [YJL039C/NUP192] are 2.87 ± 0.11, 2.87 ± 0.25, 2.95 ± 0.19 and 2.79 ± 0.28.
The corresponding values for QQEAKYRNNEPAGFTHK [YDL088C/ASM4] are 2.88 ± 0.052, 2.98 ± 0.046, 2.6 ± 0.059 and 2.83 ± 0.045.
For DATFAGHSLGEYAALAS [FAS1], the protein stability index was 2.73 ± 0.14 (doa10∆), 3 ± 0.08 (pdr5∆), 2.83 ± 0.11 (san1∆) and 2.49 ± 0.073 (ubr1∆).
For VDKALIAEIKKTPLLKQ [RPL6A], the protein stability index by setting is: (doa10∆) 2.64 ± 0.088; (pdr5∆) 2.12 ± 0.28; (san1∆) 1.92 ± 0.16.
GIKYHATPPLKRFKDME [SMC1] returned a protein stability index (doa10∆) of 3.1 ± 0.1, a protein stability index (pdr5∆) of 3.25 ± 0.075, a protein stability index (san1∆) of 2.95 ± 0.07 and a protein stability index (ubr1∆) of 3.25 ± 0.076.
The corresponding values for SDLLVAPPLENENSNCL [YML103C/NUP188] are 3 ± 0.095, 3.28 ± 0.1, 3.25 ± 0.14 and 3.18 ± 0.11.
Turning to LITKANKVSYYGNPTSK [RTT102], the protein stability index was determined as 2.21 ± 0.044 (doa10∆), 1.89 ± 0.042 (pdr5∆), 1.97 ± 0.089 (san1∆) and 2.2 ± 0.045 (ubr1∆).
The matching figures for LSSLILKIFQEQSLEVF [SRB8]: 2.5 ± 0.087, 2.67 ± 0.12, 2.88 ± 0.09 and 2.71 ± 0.1.
Turning to EPNSAKKIRFLQLIIFL [RGR1], the protein stability index is, setting by setting: (doa10∆) 1.66 ± 0.11; (pdr5∆) 2.42 ± 0.1; (san1∆) 2.89 ± 0.3.
SNSAGTSLFGSSSAQQT [YJL041W/NSP1] displayed a protein stability index (doa10∆) of 3.15 ± 0.069, a protein stability index (pdr5∆) of 3.08 ± 0.079, a protein stability index (san1∆) of 3.12 ± 0.073 and a protein stability index (ubr1∆) of 3.17 ± 0.052.
The matching figures for LENKENGLLNEISRLKT [SMC2]: 3.31 ± 0.18, 3.29 ± 0.079, 3.15 ± 0.094 and 3.18 ± 0.13.
The corresponding values for SIIGNKNNNYTWEECVF [REC8] are 2.78 ± 0.15, 2.62 ± 0.23, 2.73 ± 0.085 and 2.43 ± 0.11.
The corresponding values for QEVTNEAPFLTSGTSSE [GAL11] are 3.35 ± 0.079, 3.35 ± 0.08, 3.42 ± 0.067 and 3.13 ± 0.073.
Regarding NGQPLNQNFSLTFQPQQ [GRR1], the protein stability index is 3.09 ± 0.051 (doa10∆), 3.12 ± 0.047 (pdr5∆), 3.04 ± 0.051 (san1∆) and 3.01 ± 0.043 (ubr1∆).
For the sequence QLIKQSIKNNVAMCFVI [SNU114], the protein stability index was 1.37 ± 0.16 (doa10∆), 1.69 ± 0.14 (pdr5∆) and 1.24 ± 0.2 (san1∆).
For the sequence CELQVETYGSMEMSEKI [RPN5], the protein stability index is, setting by setting: (doa10∆) 2.76 ± 0.096; (pdr5∆) 2.96 ± 0.074; (san1∆) 2.71 ± 0.071; (ubr1∆) 2.84 ± 0.077.
The corresponding values for DYNFKYGIPLEFYNEMH [PRP8] are 2.98 ± 0.08, 3.08 ± 0.091, 1.78 ± 0.082 and 3.15 ± 0.083.
The matching figures for STPYLEILVEESGLRPV [PCI8]: 1.57 ± 0.048, 1.55 ± 0.091, 1.54 ± 0.19 and 2.17 ± 0.091.
The corresponding values for GDRGALARASGNYVIII [RPL2A] are 2.82 ± 0.11, 2.81 ± 0.11, 2.84 ± 0.11 and 2.75 ± 0.14.
As to IKILGSEGYQKTFSRLD [RPN4], the protein stability index was 1.28 ± 0.089 (doa10∆), 1.55 ± 0.15 (pdr5∆) and 1.05 ± 0.24 (san1∆).
